# The RNAGym collection of RNA variant scans (doi:10.1073/pnas.2313332121)
# This sample holds only a part of the variants without activity.
# B1: TPR 5TU (parent)
# chain: GGAUCUUCUCGAUCUAACAAAAAAGACAAAUCUGCCACAAAGCUUGAGAGCAUCUUCGGAUGCAGAGGCGGCAGCCUUCGGUGGCGCGAUAGCGCCAACGUUCUCAACUAUGACACGCAAAACGCGUGCUCCGUUGAAUGGAGUUUAUCAUG
# Variants of: B1
# Assay: polymerase ribozyme fitness, log enrichment relative to wild type (log ratio); higher = more active; in vitro selection for triplet polymerase activity
# How it was run: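 Only genotypes with ≥10 input reads and ≥1 read per output were kept after Illumina sequencing of input and output libraries. These libraries were PCR-built, transcribed mutants of each subunit of a heterodimeric triplet polymerase ribozyme, each put through one triplicate in vitro selection round with frozen incubation at −7 °C, gel excision of extended constructs, streptavidin-bead capture and RT-PCR. Fitness is a logarithmic ratio of genotype enrichment to wild-type enrichment, from inverse-variance-weighted replicate averages, with the logarithm in base 2.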
row,Variant,polymerase ribozyme fitness (log ratio)
1,C85U C105U,-0.279
2,C43A G48U A60G G83C C87U G126U A138C,≤ -4.2
3,C51U C85U G140C,≤ -4.2
4,G59U C93A G152U,≤ -4.2
5,A17U U56C G74U C76U G84U C125G A138C,≤ -4.2
6,U82A A89G C96G G128U,-4.05
7,C5A U7C C18G U55A G58A A89C,-1.54
8,A60C G71A C85A G143C,≤ -4.2
9,C75G G94C,-3.53
10,A12U C87U A97U,-0.917
11,C8G A17G G25A C54G G71C C87U U90A C96U C132U,≤ -4.2
12,G81A C131G G140C,-4
13,A40C G143A,-0.684
14,C14U G59A C85U U134A,-4.12
15,G94U A97G U127A A150U,≤ -4.2
16,A3U A20U G50C,≤ -4.2
17,C14G A23G G88A,≤ -4.2
18,G71U G83U,-3.48
19,A21U U33G C72A C95U A122U,≤ -4.2
20,A28C C36U A39U U55A A66U C79U A91U C93A,≤ -4.2
21,G25C C72U A91G A119U U127A,≤ -4.2
22,C35A G67U G94U,≤ -4.2
23,C85A C93U A119C G126U U127A,≤ -4.2
24,C18G A120C,-1.21

row,Variant,polymerase ribozyme fitness (log ratio)
1,C38U G58U C85U C108A U134A U144C,≤ -4.2
2,A21C G50A C57A C93A U135G,≤ -4.2
3,G48C C85U G94U C96U U144C,-3.25
4,U7C A12C C87A C105A C116G A138U G152U,≤ -4.2
5,U9C G71A C95U U151C,≤ -4.2
6,G70C C87G C96G A107G U146G,≤ -4.2
7,C85U G133C,-1.69
8,C57U G68A C72U G92A,≤ -4.2
9,A28G,-2.24
10,U56A G80U C99A A122C,-1.16
11,U56A G58A C72U C87U U109G G136A U144C,-4.13
12,U6G C10G C87G,≤ -4.2
13,A24U C35A A52U G84A G136A,≤ -4.2
14,A30G C95A U104A C118U C131A A138U G141A,≤ -4.2
15,G59C C69A G133C,-1.75
16,U44A U144C,-3.62
17,A17C A21U C51U G59C C95U A106U G136C U151G,≤ -4.2
18,C85G U144G,-1.75
19,U53A G92U A107U G136U,≤ -4.2
20,A41G G42A G48C C93A A106C U109C A137C,≤ -4.2
21,C51A G140U,-4.11
22,A106G C125A,-0.665
23,C38A A47G U55A U56C A60G,-2.08
24,G48A C54U G94C,-1.21

row,Variant,polymerase ribozyme fitness (log ratio)
1,G42A U44G U56A G81C C85A G117U,≤ -4.2
2,G25U A30C A47C C99G U101G C105A,≤ -4.2
3,A3C C18G U56A C57A C93G U146G,≤ -4.2
4,A52U G80A,-3.35
5,A12G A19U U45A U53A G88U,≤ -4.2
6,A49G A106G,-1.08
7,C76U A89G,-1.03
8,A89C C96U A97C C99U,-3.09
9,C54U G68C C69G G71U G140A U144G,≤ -4.2
10,A39C A64C C93U,≤ -4.2
11,A49C C85U,-3.49
12,A3G C14U G34A G48A C85A G126U G136A U144G,≤ -4.2
13,C95U G141A,0.432
14,C57U A91G,-2.92
15,A107C A110G A121G,≤ -4.2
16,A40U U61A C79A U104G,≤ -4.2
17,C32G A37C G140C,≤ -4.2
18,C51A C75U C95U A106C G128U,≤ -4.2
19,C87U C132U,-1.11
20,G83A G126C,0.173
21,U44C G83C U148A,≤ -4.2
22,C36A A98U A113U C118U U148A,≤ -4.2
23,A47C C95U C116A,-0.555
24,U31C U101C G124A,1.05

row,Variant,polymerase ribozyme fitness (log ratio)
1,C75U A121G,-0.596
2,G50C C103A C149U,≤ -4.2
3,A16G C43G C57U G84A C85A A91C U127C,≤ -4.2
4,U9C C76U,-2.74
5,C54A U78G U101G A107G C118A U130A,≤ -4.2
6,A12U A91U,≤ -4.2
7,A12G A16U A26U G83U C87G U145C,≤ -4.2
8,U61G C96U U144G,-1.1
9,C5A C14G A37U A52C C85G C99U G140U,≤ -4.2
10,A3C U44G U56A G84C,≤ -4.2
11,A16C A24G U56C U77C G86A U104G U139A A142G,≤ -4.2
12,A21G C35A A49G C96G,≤ -4.2
13,A21C U53A C85A,-2.67
14,C87U G152C,-3.17
15,U53G C96A U104G,-3.96
16,A115U U146G,-2.23
17,A30G U44C G88C C105A,≤ -4.2
18,C63A,0.15
19,A41C A91C,≤ -4.2
20,C51U A64C C79A C85U A142G,≤ -4.2
21,C36U U102G C108A C116U A122G,≤ -4.2
22,C93U U104G,-1.8
23,G58A U61A A107G C118G A119G,≤ -4.2
24,A73G A89U,-0.161

row,Variant,polymerase ribozyme fitness (log ratio)
1,C27G C32U C36U G88A C99U G141U G152C,-4.05
2,A89U A91U C116U,≤ -4.2
3,A3C U13G G62A A66C U145A,≤ -4.2
4,A37C G83U,-0.441
5,A39U C54U U55G C93U C103U,≤ -4.2
6,C69A G84A A89G U146C,-2.59
7,A49G C96U,-0.233
8,C51U C87U A121U,-0.813
9,G83C C125U U146G,-3.89
10,C108U C132A U139A,≤ -4.2
11,A16U A52G U104G U134G,≤ -4.2
12,A17G A23C A97U C114U,≤ -4.2
13,C5G C14G G48C C57A A73C C87U C118U A121G C123U G140C,≤ -4.2
14,G141A C149G,-4.13
15,A37G A52C C95U A98C,-3.46
16,C51A G58C,-2.22
17,A24C G42C G92U C125G,≤ -4.2
18,G71U G86U C125A A138G,-3.99
19,U45G C51U C95A C125U,-3.64
20,A22U G86A C93G C99A A138C,≤ -4.2
21,U6G U13G A16G C85G G86A A142G,≤ -4.2
22,A39U C51U C54U A60G U82G A98C,-3.88
23,G50A U78A G83A G100A A107C,≤ -4.2
24,A23C A26U U33G C76A U101G U145G,≤ -4.2

row,Variant,polymerase ribozyme fitness (log ratio)
1,U82G G92U C131A,-3.24
2,A41C C63G A64C U111C,≤ -4.2
3,U13G A40U C96G A121G,-2.57
4,C8A C27U U56C U111C A138G,≤ -4.2
5,A12U U31G A40C A49C A60G C93U,≤ -4.2
6,C87U G141U,0.462
7,C85G G92U G136A G141A,-3.06
8,C8A A47G A49C G59C A60U G84A C125G,≤ -4.2
9,A20C A60C C85A,-2.66
10,C43U U61G A64C U77G C85U A110U C116G,-4.02
11,U6G C54G A73U U102A A106G U127G C132G U135G,≤ -4.2
12,C96G C105G,-1.92
13,A52C U55A A66C C79G G133U A137G,≤ -4.2
14,A49U C116G C149U,-4.18
15,A21C A26C A28C G70U A107C A147C,≤ -4.2
16,C103A A120G C131U A138U,-3.71
17,A47G G59C G92U C99A C118G,-3.37
18,C14A A17U A40U C57G G84U C96A A121C,≤ -4.2
19,G86C G136A,-1.38
20,C27A A39G U53C C95A A121U G136C,≤ -4.2
21,A26C G42A G46C A49G A52C C54U A91U C99U U109G C132U G140U,≤ -4.2
22,C35A U44A G70C C76U C103G U145G,≤ -4.2
23,A91G A120G,-2.98
24,C123U U145A,0.729

row,Variant,polymerase ribozyme fitness (log ratio)
1,A29G U78G G84C,≤ -4.2
2,U15A G25A G42C C79A,≤ -4.2
3,A21C G25A,-2.85
4,A19U C85A A113U,-3.44
5,A12U U82G,-1.49
6,A24U A30C C93G C118A,≤ -4.2
7,C10U A22C C36A A49C U53C C57G G58A G86U C93U G117U,≤ -4.2
8,C95A A120G A138G,-2.96
9,G34U C95G A115G C116U G140C U151A,-4.19
10,U45A C116U,-2.44
11,C57G G71A C96A U146A,-4.05
12,A23C A29U C38U C54A G84A A98U A106G A137U,≤ -4.2
13,G46U U82C C95U,-0.628
14,G46C C76U,≤ -4.2
15,U9G A23U G58A G59U C79A G81U C85A A120C U139C,≤ -4.2
16,A110U,-3.57
17,C32G C85G U90G C118A G133U G140C C149G,≤ -4.2
18,A21G C114U,-1.69
19,C69G C93G,-3.97
20,A20G G42C G84A C149A,≤ -4.2
21,G58C C75G C76G C85U,≤ -4.2
22,A41C A52G G58A,-1.39
23,C5A G67C C103A G141U A150C,≤ -4.2
